The results in this text go back to paper doi:10.1101/2021.04.04.438383 (bioRxiv, 2021).

This data set concerns the molecule itself. As to the kind of experiment: dynamic light scattering.

B1: recombinant Arc S67D, GST tag cleaved (natural protein)
chain: MELDHMTTGGLHAYPAPRGGPAAKPNVILQIGKCRAEMLEHVRRTHRHLLTEVSKQVERELKGLHRDVGKLENNLDGYVPTGDSQRWKKSIKACLCRCQETIANLERWVKREMHVWREVFYRLERWADRLESMGGKYPVGSEPARHTVSVGVGGPEPYCQEADGYDYTVSPYAITPPPAAGELPEQESVEAQQYQSWGPGEDGQPSPGVDTQIFEDPREFLSHLEEYLRQVGGSEEYWLSQIQNHMNGPAKKWWEFKQGSVKNWVEFKKEFLQYSEGTLSREAIQRELELPQKQGEPLDQFLWRKRDLYQTLYVDAEEEEIIQYVVGTLQPKLKRFLRHPLPKTLEQLIQRGMEVQDGLEQAAEPSGTPLPTEDETEALTPALTSESVASDRTQPE
Turning to B1, the binding result was “binds”.

B2: recombinant Arc T278D, GST tag cleaved (natural protein)
chain: MELDHMTTGGLHAYPAPRGGPAAKPNVILQIGKCRAEMLEHVRRTHRHLLTEVSKQVERELKGLHRSVGKLENNLDGYVPTGDSQRWKKSIKACLCRCQETIANLERWVKREMHVWREVFYRLERWADRLESMGGKYPVGSEPARHTVSVGVGGPEPYCQEADGYDYTVSPYAITPPPAAGELPEQESVEAQQYQSWGPGEDGQPSPGVDTQIFEDPREFLSHLEEYLRQVGGSEEYWLSQIQNHMNGPAKKWWEFKQGSVKNWVEFKKEFLQYSEGDLSREAIQRELELPQKQGEPLDQFLWRKRDLYQTLYVDAEEEEIIQYVVGTLQPKLKRFLRHPLPKTLEQLIQRGMEVQDGLEQAAEPSGTPLPTEDETEALTPALTSESVASDRTQPE
With B2, the binding result is on record as “binds”.
